Values joined by “and” are separate entries in the source; they are usually repeats but may differ in a detail not shown here. Equal values may be shown once.
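Also: lentiviral eGFP-IRES-mCherry reporter pool sorted by FACS 96 h post-transduction, gated on mCherry-high cells, Illumina read counts normalized per million, median across four biological replicates.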

Chain of RBP1 (chain, as listed by the source): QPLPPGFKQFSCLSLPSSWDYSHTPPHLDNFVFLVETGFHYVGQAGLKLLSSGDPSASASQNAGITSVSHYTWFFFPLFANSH

The test system of this data set is HEK293T. In words: median enrichment of reporter reads in eGFP-reduced (low/intermediate) vs eGFP-high sorted cells (eGFP-extension fusion abundance) (ratio); higher = stronger loss of eGFP-fusion protein abundance (more destabilising extension).
For “PLLNLDFCPNPLPVTRSISLSLLSNGAWSTEASEAIALLAEVKRTLSPHLRLPCVEPASVCPSFHCSQCQTWAAAPRRLRPNQ [SLC18A3]”, the median enrichment came out at 5.19.

As for YILDLFYFLWSKFWCD [MIER1], the median enrichment was determined as 7.56.

For LDRKEYERAIHHQTAHTGEK [ZNF573], the median enrichment was 0.396.

“GHAQAMNPQLSQMADRWSPAPIATCNSEKISLVTDQCHGGAC [SHISA3]”: the median enrichment is 1.98.

As to RGASSSE [SLC1A6], the median enrichment is 0.611 and 0.437.

As to YRTDVE [HEY1], the median enrichment came to 0.613.

Turning to “CAPAERRLETGATASRVQQHSRHGSGRDSAWPRGTFPGQGPGGNWHGLVPLLCCILIPQPAPLGSDLSCPRAEPGGPEGEMNP [ANKRD13B]”, the median enrichment came out at 6.25.

On to YELWGAHTPQSS [IL17A], for which the median enrichment worked out at 1.09.

As for “WPLQQNSFVLCGAMPSLTPNRVSVILRTFYPQHL [CPNE3]”, the median enrichment stood at 16.4.

Consider “CLSLPSSWDYSHTPPHLDNFVFLVETGFHYVGQAGLKLLSSGDPSASASQNAGITSVSHYTWFFFPLFANSHGVFWHHFQHYF [RBP1]”, for which the median enrichment stood at 8.27.

As to “LDALAMAQEKPARKNQTDFHTKEEASIFFFLFFIGVVTKPFRLLLFKI [QRICH1]”, the median enrichment turned out to be 10.6.

As to SEELPGRTQDAEPRSLPG [ACAN], the median enrichment was found to be 0.794.

Take AAAA [Ala04]: the median enrichment is 11.6.

Take QQLRLHQRQHTKKL [BCAS3]: the median enrichment turned out to be 1.16.

On to RBP1, for which the median enrichment stood at 6.79.

Take RMLEAFIHL [ZNF248]: the median enrichment is 1.59.

In the case of LKVLAGFT [DACH2], the median enrichment came out at 4.2.

Regarding “RQEGRPHCFSHPFPLLPMGRGPGCRKSSYLQELHHNLEGSSWSCEFSLYSVTIPDHLIKMLPPSIGFIELVTS [NME1]”, the median enrichment came to 9.63.

Take “LLLPGGEQPTRCRFALRGASYIGTLLSLQNDDTNANDQM [TFB1M]”: the median enrichment turned out to be 5.57.

For the substance RGNMCNVLTKVTGTY [PLEKHS1], the median enrichment came to 1.76.

Regarding “WRSCAAQSQTPAPTTYFCYTQEHFRKLSQLIFCFSSMSILSVSHFEDFFSLLYLCFSFFGFYFVVLSVIFNVPKICTCSIKNV [HOOK3]”, the median enrichment is 2.08.

As to “LPGLRRTLWTECLRTSYSLMLNPFHFLSFHSWVDSDHKDSWGFPGRTLHLMEHLNCRFCFPPLPHVIIKL [LCE2B]”, the median enrichment is 6.36.

SAAVTTFTCSSYTQTLQD [PIFO]: the median enrichment stood at 1.55.

For the substance WNQS [CFHR1], the median enrichment turned out to be 0.596.

On to QLDHDLVQ [TRAT1], for which the median enrichment was 0.266.

On to “WGSGFVSAAAYPCPMCPPLPVLRASGMVQALRKVRVAVWEPLCLAPGYPGPGNLRAGERWGGRHAEVLLVTGLPSLTCTYLHP [SLC36A1]”, for which the median enrichment was 4.72.

With SLYRLRR [ST3GAL6], the median enrichment is 3.73.

On to “CLSGRANPENEDWKKEKKKNTSKVSSEIVLHLLYSLEDFHYVLTTLKCVNS [FOXP1]”, for which the median enrichment was determined as 9.44.

For the substance LAHEPTRMSSDFQPHPSGSCAKGGGRR [TREM1], the median enrichment worked out at 0.974.

Take IIIIIIIII [Ile09]: the median enrichment turned out to be 9.46.

As to YLSSAPVVVVVLNFRI [ZSCAN21], the median enrichment was 16.1.

In the case of “LKWAEPKFGVLHRAPFLHPWGGAQLGATLTMPRPHPVQHSQSSHLHPRTVGAGRHFPLEHVLRSITLGPTARLSLPPGSCMRS [SCARA5]”, the median enrichment is 5.99.

In the case of “GSGLCLVLSLPGRCSTPYRGGQLRAWAASSWTQLSRSSCSAQGGHMSEPRSWTSTQEDASEGKEIFYGLRPECQY [KLRG2]”, the median enrichment stood at 7.23.

For the substance SGPPPAILSS [CYP4A22], the median enrichment was determined as 0.549.

Regarding “YAQLAICKVTSAKFSFGSYPRAPMSSYQEVINVTPFHRLKGVITLLLG [PAFAH2]”, the median enrichment stood at 4.37.

As to SLLLVPK [RBKS], the median enrichment is 1.87.

For SNTAFNWELETH [PREPL], the median enrichment is 0.178.

Turning to LRRVLSNLFFFFLYLHLQPQLSHFSP [MTMR11], the median enrichment came to 11.6.

As to “LYRSRWFFTALDIIPFYHPFITPKVCLIASEVYKVV [PLPPR5]”, the median enrichment was determined as 7.74.
